Source: US20230019640A1 (Janssen / Centocor, published 2023)

T1: mouse pIgR extracellular domain (ECD) (mouse, UniProt O70570 19-645)
T1 construct: The entry ends with a C-terminal HHHHHH tag; also called mpIgR; mpIgR ectodomain
T1 sequence: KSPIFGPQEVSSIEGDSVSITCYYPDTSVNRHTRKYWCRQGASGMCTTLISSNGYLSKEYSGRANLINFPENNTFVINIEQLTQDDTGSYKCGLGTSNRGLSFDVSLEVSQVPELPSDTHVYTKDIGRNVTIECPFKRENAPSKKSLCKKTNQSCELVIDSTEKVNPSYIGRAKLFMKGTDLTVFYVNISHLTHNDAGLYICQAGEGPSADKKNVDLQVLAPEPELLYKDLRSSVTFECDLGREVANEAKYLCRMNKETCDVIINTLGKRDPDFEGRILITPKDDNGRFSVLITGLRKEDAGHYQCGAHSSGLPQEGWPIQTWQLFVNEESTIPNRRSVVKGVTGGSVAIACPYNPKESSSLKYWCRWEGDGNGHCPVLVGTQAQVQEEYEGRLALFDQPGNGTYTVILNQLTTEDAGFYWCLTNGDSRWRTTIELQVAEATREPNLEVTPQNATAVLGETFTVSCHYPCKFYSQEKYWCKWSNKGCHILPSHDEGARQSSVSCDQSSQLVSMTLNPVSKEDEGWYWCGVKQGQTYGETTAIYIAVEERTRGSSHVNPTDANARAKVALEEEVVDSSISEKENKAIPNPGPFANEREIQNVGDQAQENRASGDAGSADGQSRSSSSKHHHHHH

B1: VHH3 - linker-mono-Fc protein (Fc fusion)
chain: QLQLVESGGGLVQPGGSLRLSCAASGSIFSINVMGWYRQAPGKQRELVARINGGGITHYAESVKGRFTISRDNAKNTVYLQMNSLKPEDTAAYYCKADVFGSSGYVETYWGQGTQVTVSSEPKTPKPQPQPQLQPQPNPTTESKSPKSPAPELLGGPSVFLFPPKPKDTLMISRTPEVTCVVVDVSHEDPEVKFNWYVDGVEVHNAKTKPREEQYNSTYRVVSVLTVLHQDWLNGKEYKCKVSNKALPAPIEKTISKAKGQPREPQVYTKPPSREEMTKNQVSLSCLVKGFYPSDIAVEWESNGQPENNYKTTVPVLDSDGSFRLASYLTVDKSRWQQGNVFSCSVMHEALHNHYTQKSLSLSPGK
notes: also called VHH3-mono-Fc; hpIgR_021
B2: VHH2 - linker-mono-Fc protein (Fc fusion)
chain: EVQVVESGGGLVQAGGSLKLACAAPGLTFSSYRMGWFRQAPGQEREFVAAIDWNGRGTYYRYYADSVKGRSTISRDNAKNTVYLQMNSLKPEDTAVYYCAATTVLTDPRVLNEYATWGQGTQVTVSSEPKTPKPQPQPQLQPQPNPTTESKSPKSPAPELLGGPSVFLFPPKPKDTLMISRTPEVTCVVVDVSHEDPEVKFNWYVDGVEVHNAKTKPREEQYNSTYRVVSVLTVLHQDWLNGKEYKCKVSNKALPAPIEKTISKAKGQPREPQVYTKPPSREEMTKNQVSLSCLVKGFYPSDIAVEWESNGQPENNYKTTVPVLDSDGSFRLASYLTVDKSRWQQGNVFSCSVMHEALHNHYTQKSLSLSPGK
notes: also called VHH2-mono-Fc; mpIgR_338

Molecular target: T1, mouse pIgR extracellular domain (ECD)
Experiment: not named on the sheet

Binder | binding result
B1 | binds
B2 | binds
